How the values were obtained:
[1] = target: p120 catenin expressed from a transfected plasmid (exogenous p120, HA-tagged in Example 1)
[2] = target: Flag-tagged Abi-1 expressed from pCMV-Flag-Abi1, Q8IZP0
Flag-tagged Abi-1 expressed from pCMV-Flag-Abi1, Q8IZP0, sequence (Q8IZP0 whole entry, looked up): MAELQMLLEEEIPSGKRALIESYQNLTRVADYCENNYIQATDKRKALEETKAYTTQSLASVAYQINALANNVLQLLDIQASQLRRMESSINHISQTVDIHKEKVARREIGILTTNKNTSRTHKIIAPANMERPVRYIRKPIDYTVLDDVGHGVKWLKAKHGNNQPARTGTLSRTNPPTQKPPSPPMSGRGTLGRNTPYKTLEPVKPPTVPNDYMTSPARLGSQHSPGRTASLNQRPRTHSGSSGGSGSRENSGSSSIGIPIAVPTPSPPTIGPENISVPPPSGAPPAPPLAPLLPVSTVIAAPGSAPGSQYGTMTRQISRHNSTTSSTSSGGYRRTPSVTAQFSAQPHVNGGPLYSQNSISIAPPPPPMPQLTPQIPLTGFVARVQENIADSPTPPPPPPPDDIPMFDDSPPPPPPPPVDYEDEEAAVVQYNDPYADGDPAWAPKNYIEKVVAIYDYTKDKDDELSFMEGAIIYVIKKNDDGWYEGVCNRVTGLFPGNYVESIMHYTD

Row | Protein | in vitro phosphorylation (32P-ATP, autoradiography; gel mobility shift) [1] | in vitro phosphorylation (32P-ATP, autoradiography) [2] | in vitro phosphorylation (32P-ATP, autoradiography) (Myelin Basic Protein)
1 | purified GST-ZC1 kinase domain (protein) MANDSPAKSLVDIDLSSLRDPAGIFELVEVVGNGTYGQVYKGRHVKTGQLAAIKVMDVTEDEEEEIKLEINMLKKYSHHRNIATYYGAFIKKSPPGHDDQLWLVMEFCGAGSITDLVKNTKGNTLKEDWIAYISREILRGLAHLHIHHVIHRDIKGQNVLLTENAEVKLVDFGVSAQLDRTVGRRNTFIGTPYWMAPEVIACDENPDATYDYRSDLWSCGITAIEMAEGAPPLCDMHPMRALFLIPRNPPPRLKSKKWSKKFFSFIEGCLVKNYMQRPSTEQLLKHPFIRDQPNERQVRIQLKDHIDRTRKKRGEKDETEYEYSGSEE | added purified recombinant ZC1 enzyme induced phosphorylation of p120 | – | –
2 | kinase domain of ZC3 fused to GST (protein) MGDPAPARSLDDIDLSALRDPAGIFELVEVVGNGTYGQVYKGRHVKTGQLAAIKVMDVTEDEEEEIKQEINMLKKYSHHRNIATYYGAFIKKSPPGNDDQLWLVMEFCGAGSVTDLVKNTKGNALKEDCIAYICREILRGLAHLHAHKVIHRDIKGQNVLLTENAEVKLVDFGVSAQLDRTVGRRNTFIGTPYWMAPEVIACDENPDATYDYRSDIWSLGITAIEMAEGAPPLCDMHPMRALFLIPRNPPPRLKSKKWSKKFIDFIDTCLIKTYLSRPPTEQLLKFPFIRDQPTERQVRIQLKDHIDRSRKKRGEKEETE | – | A strongly phosphorylated band corresponding to Abi-1 appears in the sample containing immunoprecipitated Abi-1 and GST-ZC3KD | MBP is known to be a good in vitro substrate for ZC3 and is indeed strongly phosphorylated
